According to paper PMC7440162 (Cell, 2020):

Tests used:
PTPRS ECD-Fc = molecular target: T1, PTPRS ECD-Fc (human, UniProt Q13332 30-1282); test: SPR
T1 sequence: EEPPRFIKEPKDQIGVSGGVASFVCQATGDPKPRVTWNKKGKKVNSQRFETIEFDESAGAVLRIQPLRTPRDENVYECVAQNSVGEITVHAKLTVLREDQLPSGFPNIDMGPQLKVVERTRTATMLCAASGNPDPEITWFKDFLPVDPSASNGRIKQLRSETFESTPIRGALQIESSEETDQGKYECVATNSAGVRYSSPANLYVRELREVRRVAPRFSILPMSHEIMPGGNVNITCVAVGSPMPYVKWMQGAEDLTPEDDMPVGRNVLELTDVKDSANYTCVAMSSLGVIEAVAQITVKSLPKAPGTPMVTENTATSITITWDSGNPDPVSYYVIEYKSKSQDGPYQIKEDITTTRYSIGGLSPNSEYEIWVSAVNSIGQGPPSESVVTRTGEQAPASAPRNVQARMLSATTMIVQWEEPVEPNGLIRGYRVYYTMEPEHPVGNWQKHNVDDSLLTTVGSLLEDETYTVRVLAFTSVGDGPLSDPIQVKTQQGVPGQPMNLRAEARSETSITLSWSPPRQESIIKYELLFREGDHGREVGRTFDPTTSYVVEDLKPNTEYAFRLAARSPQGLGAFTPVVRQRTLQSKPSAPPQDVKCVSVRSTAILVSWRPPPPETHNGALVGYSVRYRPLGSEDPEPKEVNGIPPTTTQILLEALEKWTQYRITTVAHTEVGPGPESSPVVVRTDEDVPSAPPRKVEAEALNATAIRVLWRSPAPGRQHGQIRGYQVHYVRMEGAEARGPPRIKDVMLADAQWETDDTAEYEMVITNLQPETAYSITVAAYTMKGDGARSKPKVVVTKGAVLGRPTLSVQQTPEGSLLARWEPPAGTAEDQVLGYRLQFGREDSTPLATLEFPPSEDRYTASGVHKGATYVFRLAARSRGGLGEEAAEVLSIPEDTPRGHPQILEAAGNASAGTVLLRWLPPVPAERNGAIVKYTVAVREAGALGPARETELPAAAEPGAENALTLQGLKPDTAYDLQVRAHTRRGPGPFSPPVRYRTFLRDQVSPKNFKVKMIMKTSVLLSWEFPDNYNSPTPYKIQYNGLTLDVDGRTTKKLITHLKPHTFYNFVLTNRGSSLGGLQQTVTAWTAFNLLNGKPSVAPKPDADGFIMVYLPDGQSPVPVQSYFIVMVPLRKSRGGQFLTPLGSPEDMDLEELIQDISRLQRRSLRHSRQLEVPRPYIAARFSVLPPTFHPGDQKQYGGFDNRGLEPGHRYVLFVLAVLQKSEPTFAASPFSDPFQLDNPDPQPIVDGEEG

PTPRF ECD-Fc = molecular target: T2, PTPRF ECD-Fc (human, UniProt P10586 30-1263); test: SPR
T2 sequence: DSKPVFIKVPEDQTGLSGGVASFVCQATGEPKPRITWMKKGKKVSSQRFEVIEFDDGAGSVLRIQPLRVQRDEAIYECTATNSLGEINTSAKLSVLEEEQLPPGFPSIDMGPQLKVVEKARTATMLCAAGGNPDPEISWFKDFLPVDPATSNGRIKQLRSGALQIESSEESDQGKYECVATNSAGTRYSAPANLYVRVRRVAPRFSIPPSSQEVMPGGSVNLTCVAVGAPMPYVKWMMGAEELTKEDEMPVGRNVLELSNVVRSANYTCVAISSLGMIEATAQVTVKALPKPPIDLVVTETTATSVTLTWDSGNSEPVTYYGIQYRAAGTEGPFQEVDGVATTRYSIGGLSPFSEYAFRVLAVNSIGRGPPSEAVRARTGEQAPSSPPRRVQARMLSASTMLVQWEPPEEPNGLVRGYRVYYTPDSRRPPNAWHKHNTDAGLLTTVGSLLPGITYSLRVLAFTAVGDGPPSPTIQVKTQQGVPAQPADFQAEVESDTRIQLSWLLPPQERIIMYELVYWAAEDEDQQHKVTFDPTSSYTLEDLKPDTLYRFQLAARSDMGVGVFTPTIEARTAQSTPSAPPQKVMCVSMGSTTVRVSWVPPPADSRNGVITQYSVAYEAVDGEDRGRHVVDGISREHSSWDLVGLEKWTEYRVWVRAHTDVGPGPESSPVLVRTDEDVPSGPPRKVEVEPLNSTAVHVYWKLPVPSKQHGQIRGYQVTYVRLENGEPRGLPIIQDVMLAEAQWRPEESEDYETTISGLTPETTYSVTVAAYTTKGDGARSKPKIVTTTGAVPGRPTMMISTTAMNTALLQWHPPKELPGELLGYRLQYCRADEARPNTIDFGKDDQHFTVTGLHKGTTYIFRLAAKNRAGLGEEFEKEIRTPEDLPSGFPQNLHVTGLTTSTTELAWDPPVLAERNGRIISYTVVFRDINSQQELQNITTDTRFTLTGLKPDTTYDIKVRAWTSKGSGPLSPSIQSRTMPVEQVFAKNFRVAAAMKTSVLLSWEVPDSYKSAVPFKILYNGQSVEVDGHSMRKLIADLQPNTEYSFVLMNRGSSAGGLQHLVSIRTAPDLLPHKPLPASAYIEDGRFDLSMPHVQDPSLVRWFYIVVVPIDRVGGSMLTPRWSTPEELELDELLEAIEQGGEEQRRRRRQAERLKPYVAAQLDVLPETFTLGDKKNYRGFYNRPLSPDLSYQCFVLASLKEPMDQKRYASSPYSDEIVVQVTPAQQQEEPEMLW

PTPRD ECD-Fc = molecular target: T3, PTPRD ECD-Fc (human, UniProt P23468 21-1265); test: ELISA
T3 sequence: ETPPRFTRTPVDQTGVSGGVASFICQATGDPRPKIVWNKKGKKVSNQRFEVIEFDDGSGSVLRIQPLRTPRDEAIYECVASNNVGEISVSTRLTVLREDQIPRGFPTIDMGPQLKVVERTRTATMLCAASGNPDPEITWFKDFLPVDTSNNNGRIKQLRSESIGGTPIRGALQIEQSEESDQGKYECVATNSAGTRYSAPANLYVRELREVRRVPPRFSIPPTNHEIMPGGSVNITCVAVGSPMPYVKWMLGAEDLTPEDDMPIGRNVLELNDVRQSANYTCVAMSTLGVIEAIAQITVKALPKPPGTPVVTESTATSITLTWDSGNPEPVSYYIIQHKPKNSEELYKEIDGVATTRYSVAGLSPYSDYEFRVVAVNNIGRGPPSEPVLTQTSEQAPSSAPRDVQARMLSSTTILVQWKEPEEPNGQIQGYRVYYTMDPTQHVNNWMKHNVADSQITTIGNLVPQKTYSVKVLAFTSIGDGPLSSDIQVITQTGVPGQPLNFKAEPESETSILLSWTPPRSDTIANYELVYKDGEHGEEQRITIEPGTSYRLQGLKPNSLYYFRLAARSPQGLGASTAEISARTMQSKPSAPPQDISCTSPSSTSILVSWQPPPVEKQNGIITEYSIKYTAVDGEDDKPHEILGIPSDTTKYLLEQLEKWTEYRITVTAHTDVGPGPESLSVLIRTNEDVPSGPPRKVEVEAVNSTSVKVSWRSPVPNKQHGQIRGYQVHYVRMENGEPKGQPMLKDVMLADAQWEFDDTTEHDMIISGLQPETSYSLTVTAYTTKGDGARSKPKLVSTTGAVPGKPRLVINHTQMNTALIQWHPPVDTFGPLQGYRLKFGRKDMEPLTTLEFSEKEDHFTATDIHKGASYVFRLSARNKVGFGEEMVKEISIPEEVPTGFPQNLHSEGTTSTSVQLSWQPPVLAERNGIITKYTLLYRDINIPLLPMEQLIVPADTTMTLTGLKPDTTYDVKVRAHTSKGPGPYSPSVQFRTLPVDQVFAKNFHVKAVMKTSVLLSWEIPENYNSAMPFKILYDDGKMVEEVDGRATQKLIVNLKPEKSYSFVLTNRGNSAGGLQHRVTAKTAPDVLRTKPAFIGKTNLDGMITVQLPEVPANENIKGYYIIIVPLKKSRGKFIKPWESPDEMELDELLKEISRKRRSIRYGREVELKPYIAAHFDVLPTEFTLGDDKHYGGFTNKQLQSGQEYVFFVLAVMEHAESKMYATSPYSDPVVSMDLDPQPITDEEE

Measured: binding result

B1: SALM2 ECD-Fc (Fc fusion)
chain: QPCPGRCICQNVAPTLTMLCAKTGLLFVPPAIDRRVVELRLTDNFIAAVRRRDFANMTSLVHLTLSRNTIGQVAAGAFADLRALRALHLDSNRLAEVRGDQLRGLGNLRHLILGNNQIRRVESAAFDAFLSTVEDLDLSYNNLEALPWEAVGQMVNLNTLTLDHNLIDHIAEGTFVQLHKLVRLDMTSNRLHKLPPDGLFLRSQGTGPKPPTPLTVSFGGNPLHCNCELLWLRRLTREDDLETCATPEHLTDRYFWSIPEEEFLCEPPLITRQAGGRALVVEGQAVSLRCRAVGDPEPVVHWVAPDGRLLGNSSRTRVRGDGTLDVTITTLRDSGTFTCIASNAAGEATAPVEVCVVPLPLMAPPPAAPPPLTEPGSSDIATPGRPGANDSAAERRLVAAELTSNSVLIRWPAQRPVPGIRMYQVQYNSSVDDSLVYRMIPSTSQTFLVNDLAAGRAYDLCVLAVYDDGATALPATRVVGCVQFTTAGDPAPCRPLRAHFLGGTM
modifications: biotin on the AviTag (as SPR ligand)
binds: PTPRS ECD-Fc | PTPRF ECD-Fc | PTPRD ECD-Fc
